According to patent publication US20210269546A1 (MOMENTA PHARMACEUTICALS, published 2021):

Columns and labels:
[1] = molecular target: T1, cynomolgus monkey CD38 (CHO cells stably expressing cyno CD38) (cynomolgus monkey, UniProt Q5VAN0 1-301); experiment: flow cytometry, VivoTag645-labeled, CHO cells stably expressing cyno CD38, 4 °C, 1 hour, gMFI
T1 construct: whole, on cells
Method: (§1) FIG. 26. […] Extent of cell surface binding was assessed by flow cytometry. […]

[2] = molecular target: T2, human CD38 on the cell surface (Raji and other human tumor cell lines) (human, UniProt P28907 1-300); experiment: flow cytometry, VivoTag645-labeled, human CD38 expressing Raji tumor cells, 4 °C, 1 hour, gMFI
T2 construct: whole, on cells; also called cell surface CD38
Method: as §1

T1 sequence (Q5VAN0 whole entry): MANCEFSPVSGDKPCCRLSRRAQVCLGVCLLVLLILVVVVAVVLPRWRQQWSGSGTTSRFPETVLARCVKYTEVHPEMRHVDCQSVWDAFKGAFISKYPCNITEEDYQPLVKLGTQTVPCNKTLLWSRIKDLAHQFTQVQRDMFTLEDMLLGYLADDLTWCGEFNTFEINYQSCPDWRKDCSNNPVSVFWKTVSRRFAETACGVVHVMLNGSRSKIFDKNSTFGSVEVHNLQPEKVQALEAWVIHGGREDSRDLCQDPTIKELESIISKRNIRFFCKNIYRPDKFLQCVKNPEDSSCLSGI

- binding result [1]: binds
- EC50 (read off the curve) [2]: ~0.8 nM
B1: S1A-AA-Cyno (anti-Cyno CD38 mAb) (antibody, V domains shown)
VH: QLLESGGGLVQPGGSLRLSCAASGFTFDDYGMSWVRQAPGKGLEWVSDISWNGGKTHYVDSVKGQFTISRDNSKNTLYLQMNSLRAEDTAVYYCARGSLFHDSSGFYFGHWGQGTLVTVSS
VL: QSVLTQPPSASGTPGQRVTISCSGSSSNIGDNYVSWYQQLPGTAPKLLIYRDSQRPSGVPDRFSGSKSGTSASLAISGLRSEDEADYYCQSYDSSLSGSVFGGGTKLTVLG
modifications: VivoTag645 dye label in the flow cytometry assays
notes: Surrogate anti-CD38 human monoclonal IgG1 antibody; VivoTag645-labeled in flow cytometry; also called SIA-AA-Cyno; S1A-AA-Cyno CD38
